Biological target: pre-formed CPX-SNARE complex (Complexin 1 with Syntaxin1A, SNAP25B and VAMP2) (human | rat | mouse) (UniProt O14810)
Sequence (O14810 whole entry, chain 1 of 4): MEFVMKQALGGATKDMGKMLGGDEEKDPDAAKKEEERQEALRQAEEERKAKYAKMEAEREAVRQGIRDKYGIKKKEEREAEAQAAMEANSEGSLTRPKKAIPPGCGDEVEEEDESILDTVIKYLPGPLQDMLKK
Sequence (P32851 whole entry, chain 2 of 4, further chain): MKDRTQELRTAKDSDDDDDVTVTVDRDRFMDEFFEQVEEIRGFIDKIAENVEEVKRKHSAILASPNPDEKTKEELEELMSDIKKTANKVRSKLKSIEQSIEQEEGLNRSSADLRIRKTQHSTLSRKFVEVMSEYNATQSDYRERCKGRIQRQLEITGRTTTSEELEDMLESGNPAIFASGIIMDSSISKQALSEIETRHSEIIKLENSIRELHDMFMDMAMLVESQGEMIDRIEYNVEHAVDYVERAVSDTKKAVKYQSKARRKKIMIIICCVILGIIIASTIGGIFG
Sequence (P60879 whole entry, chain 3 of 4, further chain): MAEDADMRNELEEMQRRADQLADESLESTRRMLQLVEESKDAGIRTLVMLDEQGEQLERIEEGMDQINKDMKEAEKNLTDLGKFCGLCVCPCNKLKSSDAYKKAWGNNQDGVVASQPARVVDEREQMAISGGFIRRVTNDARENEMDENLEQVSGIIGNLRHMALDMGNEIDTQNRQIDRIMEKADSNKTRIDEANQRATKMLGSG
Sequence (P63027 whole entry, chain 4 of 4, further chain): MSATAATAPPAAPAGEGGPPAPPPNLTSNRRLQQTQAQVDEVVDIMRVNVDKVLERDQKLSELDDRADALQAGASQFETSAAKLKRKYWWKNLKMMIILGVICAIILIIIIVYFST

## Syt7^DA (SUMO-Syt1^TMD-Syt7 with D225A, D227A, D233A, D357A, D359A) (from UniProt Q62747 17-403)
  reduction in Ca2+ (100 μM)-evoked fusion of Syt1^WT/VAMP2 vesicles with Syt7^DA in the t-SNARE bilayer, 1:800 to 1:200 protein-to-lipid (~30% to ~70%): 70%

From paper doi:10.1101/2024.04.15.589559
